Measurements published in patent publication US20050037448A1.

How the values were obtained:
[1] = target: des-64,65-proinsulin (UniProt P01308); assay: competitive RIA, PEP001-coated tubes, 125I-Tyr-C-peptide; serum E2 overloaded with 3.33 pmol/ml des-64,65-proinsulin; no AC1D4
[2] = target: des-31,32-proinsulin (UniProt P01308); assay: competitive RIA, PEP001-coated tubes, 125I-Tyr-C-peptide; serum E2 overloaded with 0.67 pmol/ml des-31,32-proinsulin; no AC1D4
[3] = target: human proinsulin (human) (UniProt P01308); assay: competitive RIA, PEP001-coated tubes, 125I-Tyr-C-peptide; serum E2 overloaded with 0.67 pmol/ml proinsulin; no AC1D4
[4] = target: des-31,32-proinsulin (UniProt P01308); assay: competitive RIA, PEP001-coated tubes, 125I-Tyr-C-peptide; serum E2 overloaded with 0.67 pmol/ml des-31,32-proinsulin; competitor AC1D4 20 µg/ml
[5] = target: des-31,32-proinsulin (UniProt P01308); assay: sandwich immunoenzymatic C-peptide assay: PEP001 beads, goat polyclonal anti-C-peptide-alkaline phosphatase; competitor BC9B6 20 µg/ml
[6] = target: des-64,65-proinsulin (UniProt P01308); assay: as above
[7] = target: human proinsulin (human) (UniProt P01308); assay: as above
[8] = target: human proinsulin (human) (UniProt P01308); assay: competitive RIA, PEP001-coated tubes, 125I-Tyr-C-peptide; serum E1 overloaded with 0.67 pmol/ml proinsulin; competitor AC1D4 20 µg/ml
[9] = target: des-64,65-proinsulin (UniProt P01308); assay: sandwich immunoenzymatic C-peptide assay: PEP001 beads, goat polyclonal conjugate; competitors AC1D4 + BC9B6 in equal quantities, 40 µg/ml
[10] = target: human proinsulin (human) (UniProt P01308); assay: as above
[11] = target: human proinsulin (human) (UniProt P01308); assay: competitive RIA, PEP001-coated tubes, 125I-Tyr-C-peptide; serum E1 overloaded with 0.67 pmol/ml proinsulin; no AC1D4
[12] = target: des-31,32-proinsulin (UniProt P01308); assay: sandwich immunoenzymatic C-peptide assay: PEP001 beads, goat polyclonal conjugate; competitors AC1D4 + BC9B6 in equal quantities, column head 2 µg/ml
[13] = target: des-64,65-proinsulin (UniProt P01308); assay: as above
[14] = target: human proinsulin (human) (UniProt P01308); assay: as above
[15] = target: des-64,65-proinsulin (UniProt P01308); assay: competitive RIA, PEP001-coated tubes, 125I-Tyr-C-peptide; serum E1 overloaded with 3.33 pmol/ml des-64,65-proinsulin; competitor AC1D4 20 µg/ml
[16] = target: des-64,65-proinsulin (UniProt P01308); assay: competitive RIA, PEP001-coated tubes, 125I-Tyr-C-peptide; serum E2 overloaded with 0.16 pmol/ml des-64,65-proinsulin; no AC1D4
[17] = target: des-64,65-proinsulin (UniProt P01308); assay: competitive RIA, PEP001-coated tubes, 125I-Tyr-C-peptide; serum E2 overloaded with 3.33 pmol/ml des-64,65-proinsulin; competitor AC1D4 20 µg/ml
[18] = target: human proinsulin (human) (UniProt P01308); assay: competitive RIA, PEP001-coated tubes, 125I-Tyr-C-peptide; serum E1 overloaded with 0.16 pmol/ml proinsulin; no AC1D4
[19] = target: des-31,32-proinsulin (UniProt P01308); assay: competitive RIA, PEP001-coated tubes, 125I-Tyr-C-peptide; serum E2 overloaded with 3.33 pmol/ml des-31,32-proinsulin; competitor AC1D4 20 µg/ml
[20] = target: des-64,65-proinsulin (UniProt P01308); assay: competitive RIA, PEP001-coated tubes, 125I-Tyr-C-peptide; serum E1 overloaded with 0.67 pmol/ml des-64,65-proinsulin; no AC1D4
[21] = target: des-31,32-proinsulin (UniProt P01308); assay: competitive RIA, PEP001-coated tubes, 125I-Tyr-C-peptide; serum E2 overloaded with 3.33 pmol/ml des-31,32-proinsulin; no AC1D4
[22] = target: human proinsulin (human) (UniProt P01308); assay: competitive RIA, PEP001-coated tubes, 125I-Tyr-C-peptide; serum E2 overloaded with 0.16 pmol/ml proinsulin; no AC1D4
[23] = target: des-31,32-proinsulin (UniProt P01308); assay: competitive RIA, PEP001-coated tubes, 125I-Tyr-C-peptide; serum E1 overloaded with 0.67 pmol/ml des-31,32-proinsulin; no AC1D4
[24] = target: des-31,32-proinsulin (UniProt P01308); assay: sandwich immunoenzymatic C-peptide assay: PEP001 beads, goat polyclonal anti-C-peptide-alkaline phosphatase; no BC9B6
[25] = target: des-64,65-proinsulin (UniProt P01308); assay: as above
[26] = target: human proinsulin (human) (UniProt P01308); assay: as above
[27] = target: des-31,32-proinsulin (UniProt P01308); assay: sandwich immunoenzymatic C-peptide assay: PEP001 beads, goat polyclonal conjugate; competitors AC1D4 + BC9B6 in equal quantities, 10 µg/ml
[28] = target: des-64,65-proinsulin (UniProt P01308); assay: as above
[29] = target: human proinsulin (human) (UniProt P01308); assay: as above

With “PEP001 anti-C-peptide monoclonal antibody” the Increase after overload (%) [1] was 55%, the Increase after overload (%) [2] was 8% and the Increase after overload (%) [3] was 12%. The Increase after overload (%) [4] was 5%, the percentage of cross reaction [5] was 115% and the percentage of cross reaction [6] was 8%. The percentage of cross reaction [7] was 8%, the Increase after overload (%) [8] was 6% and the percentage of cross reaction [9] was 7%. For the same substance, the percentage of cross reaction [10] was 18%, the Increase after overload (%) [11] was 56% and the percentage of cross reaction [12] was 65%. It also gave a percentage of cross reaction [13] of 48%, a percentage of cross reaction [14] of 23% and an Increase after overload (%) [15] of 242%. The Increase after overload (%) [16] was 0%, the Increase after overload (%) [17] was 69% and the Increase after overload (%) [18] was 15%. The Increase after overload (%) [19] was 6%, the Increase after overload (%) [20] was 49% and the Increase after overload (%) [21] was 59%. It also gave an Increase after overload (%) [22] of 1%, an Increase after overload (%) [23] of 38% and a percentage of cross reaction [24] of 108%. The percentage of cross reaction [25] was 94%, the percentage of cross reaction [26] was 92% and the percentage of cross reaction [27] was 30%. For the same substance, the percentage of cross reaction [28] was 18% and the percentage of cross reaction [29] was 4%.
